Test results from paper PMC6713926, “Structural Basis for Properdin Oligomerization and Convertase Stimulation in the Human Complement System” (Frontiers in Immunology, 2019).

B1: hFPNb1, FP specific non-inhibitory nanobody (VHH)
VHH: QVQLVESGGGLVQAGGSLRLSCAASERTFTIYAMGWFRQAPGKEREFVAAISRSGENTDYADSVKGRFTISRDNNKNTISLQMNSLKPEDTAVYYCAAGRAILVHTTKKEYDHWGQGTQVTVSS
notes: llama nanobody selected by phage display against FPc
B2: Recombinant FB D279G, S699A, K348A, L349A, K350A (enzyme, human, UniProt P00751 26-764, looked up)
chain: TPWSLARPQGSCSLEGVEIKGGSFRLLQEGQALEYVCPSGFYPYPVQTRTCRSTGSWSTLKTQDQKTVRKAECRAIHCPRPHDFENGEYWPRSPYYNVSDEISFHCYDGYTLRGSANRTCQVNGRWSGQTAICDNGAGYCSNPGIPIGTRKVGSQYRLEDSVTYHCSRGLTLRGSQRRTCQEGGSWSGTEPSCQDSFMYDTPQEVAEAFLSSLTETIEGVDAEDGHGPGEQQKRKIVLDPSGSMNIYLVLDGSGSIGASNFTGAKKCLVNLIEKVASYGVKPRYGLVTYATYPKIWVKVSEADSSNADWVTKQLNEINYEDHAAASGTNTKKALQAVYSMMSWPDDVPPEGWNRTRHVIILMTDGLHNMGGDPITVIDEIRDLLYIGKDRKNPREDYLDVYVFGVGPLVNQVNINALASKKDNEQHVFKVKDMENLEDVFYQMIDESQSLSLCGMVWEHRKGTDYHKQPWQAKISVIRPSKGHESCMGAVVSEYFVLTAAHCFTVDDKEHSIKVSVGGEKRDLEIEVVLFHPNYNINGKKEAGIPEFYDYDVALIKLKNKLKYGQTIRPICLPCTEGTTRALRLPPTTTCQQQKEELLPAQDIKALFVSEEEKKLTRKEVYIKNGDKKGSCERDAQYAPGYDKVKDISEVVTPRFLCTGGVSPYADPNTCRGDAGGPLIVHKRSRFIQVGVISWGVVDVCKNQKRQKQVPAHARDFHINLFQVLPWLKEKLQDEDLGFL
notes: complement factor B (FB), human; also called FB AAA; 348-AAA-350

What was measured:
[1] = target: T1, FPhtΔ3, FP head-tail monomer without TSR3 (Homo sapiens, UniProt P27918); assay: crystal structure; C3bBbSCIN-FPhtΔ3-hFPNb1 complex, 6.2 Å; 100 mM NaCl, 5% PEG4000, 10 mM MgCl2, 100 mM sodium cacodylate pH 5.8; settings: both partners purified
T1 construct: properdin (FP), human, TB-TSR2 (FPhΔ3), made from FPh by a stop codon between TSR2 and TSR3; properdin (FP), human, TSR4-6 tail fragment (FPt); The methods name FPhtΔ3 for the crystals with C3bBbSCIN and hFPNb1, the results FPcΔ3; also called FPcΔ3 (so called in the results for the nanobody complex); FPΔ3

[2] = target: T2, WT FP, recombinant oligomeric properdin (human, UniProt P27918); assay: pull-down; 50 μg hFPNb1 added to HEK293F supernatants of WT FP or E244 mutants, captured on Ni-NTA beads, washed with 500 mM NaCl, eluted with 400 mM imidazole; settings: one partner purified
T2 construct: properdin (FP), human, wild type; Secreted oligomers; preparations of ~50% dimer and 50% trimer, and of ~90% dimer and 10% trimer, were used; also called oligomeric FP; dimeric FP; source: also in cell supernatant

[3] = target: T3, Biotinylated C3b (human, UniProt P01024 23-667; P01024 749-1663, biotin (Maleimide-PEG2-Biotin)); assay: BLI; biotinylated C3b on streptavidin sensors; FB variants at 40 μg/mL; 20 mM MES pH 6.0, 100 mM NaCl, 0.05% Tween, 1 mg/mL BSA, 5 mM MgCl2; settings: both partners purified
T3 construct: complement C3, human, beta chain; complement C3, human, alpha' chain of C3b; also called biotin-C3b; immobilized C3b; source: made from plasma C3 by trypsin cleavage in the presence of Maleimide-PEG2-Biotin, purified by cation exchange
T3 sequence (P01024 23-667, chain 1 of 2): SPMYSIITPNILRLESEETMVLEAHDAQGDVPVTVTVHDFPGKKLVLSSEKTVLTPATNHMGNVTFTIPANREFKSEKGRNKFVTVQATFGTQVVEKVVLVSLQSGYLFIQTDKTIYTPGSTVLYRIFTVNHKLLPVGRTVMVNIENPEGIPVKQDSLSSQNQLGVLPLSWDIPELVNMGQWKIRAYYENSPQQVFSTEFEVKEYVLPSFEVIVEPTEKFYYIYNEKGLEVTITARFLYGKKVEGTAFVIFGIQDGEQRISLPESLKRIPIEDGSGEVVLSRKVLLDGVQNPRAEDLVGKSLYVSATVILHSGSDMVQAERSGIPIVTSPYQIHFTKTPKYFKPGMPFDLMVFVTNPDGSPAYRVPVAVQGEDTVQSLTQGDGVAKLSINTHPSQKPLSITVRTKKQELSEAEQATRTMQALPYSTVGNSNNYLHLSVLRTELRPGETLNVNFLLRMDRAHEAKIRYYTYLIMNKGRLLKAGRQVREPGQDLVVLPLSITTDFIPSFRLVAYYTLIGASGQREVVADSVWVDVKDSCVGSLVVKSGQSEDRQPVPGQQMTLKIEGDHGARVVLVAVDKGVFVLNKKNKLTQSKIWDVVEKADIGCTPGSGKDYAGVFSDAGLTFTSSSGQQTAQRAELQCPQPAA
T3 sequence (P01024 749-1663, chain 2 of 2): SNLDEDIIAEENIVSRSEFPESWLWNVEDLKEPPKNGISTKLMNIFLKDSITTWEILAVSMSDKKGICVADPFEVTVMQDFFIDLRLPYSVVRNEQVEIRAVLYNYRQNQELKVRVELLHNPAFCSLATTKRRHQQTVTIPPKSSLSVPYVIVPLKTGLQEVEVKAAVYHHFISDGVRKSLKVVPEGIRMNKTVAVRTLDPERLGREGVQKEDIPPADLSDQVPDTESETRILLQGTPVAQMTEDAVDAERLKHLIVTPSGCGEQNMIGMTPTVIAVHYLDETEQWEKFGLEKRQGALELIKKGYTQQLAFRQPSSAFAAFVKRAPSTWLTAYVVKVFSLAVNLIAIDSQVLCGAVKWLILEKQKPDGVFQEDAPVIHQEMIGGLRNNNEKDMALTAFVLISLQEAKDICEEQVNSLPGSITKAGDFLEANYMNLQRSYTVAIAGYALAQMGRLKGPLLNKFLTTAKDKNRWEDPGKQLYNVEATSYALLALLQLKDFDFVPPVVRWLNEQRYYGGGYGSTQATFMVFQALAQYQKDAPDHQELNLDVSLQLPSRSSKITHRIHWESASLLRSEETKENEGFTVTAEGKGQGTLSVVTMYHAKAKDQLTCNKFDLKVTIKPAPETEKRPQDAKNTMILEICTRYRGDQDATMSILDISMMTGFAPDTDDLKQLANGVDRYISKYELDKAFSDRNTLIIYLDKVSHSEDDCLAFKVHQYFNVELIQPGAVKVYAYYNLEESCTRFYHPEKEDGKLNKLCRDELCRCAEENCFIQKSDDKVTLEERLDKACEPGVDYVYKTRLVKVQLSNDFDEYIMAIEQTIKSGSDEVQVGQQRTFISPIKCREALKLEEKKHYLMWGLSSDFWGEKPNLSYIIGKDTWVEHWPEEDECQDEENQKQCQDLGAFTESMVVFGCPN

T2 sequence (P27918 28-469): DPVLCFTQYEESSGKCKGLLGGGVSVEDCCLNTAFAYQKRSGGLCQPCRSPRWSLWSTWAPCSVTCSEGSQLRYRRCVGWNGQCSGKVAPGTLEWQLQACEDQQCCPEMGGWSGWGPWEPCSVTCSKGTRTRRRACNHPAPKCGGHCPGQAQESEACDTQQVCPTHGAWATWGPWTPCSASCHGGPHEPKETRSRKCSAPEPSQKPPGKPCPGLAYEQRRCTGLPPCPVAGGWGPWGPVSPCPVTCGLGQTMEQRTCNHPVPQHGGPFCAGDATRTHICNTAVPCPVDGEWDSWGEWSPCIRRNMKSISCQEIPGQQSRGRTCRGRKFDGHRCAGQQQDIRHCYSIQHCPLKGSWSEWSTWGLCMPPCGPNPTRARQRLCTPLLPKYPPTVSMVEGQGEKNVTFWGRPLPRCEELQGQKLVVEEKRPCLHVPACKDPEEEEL
T1 sequence (P27918 whole entry, looked up, stated change not applied, the tested form may be a part): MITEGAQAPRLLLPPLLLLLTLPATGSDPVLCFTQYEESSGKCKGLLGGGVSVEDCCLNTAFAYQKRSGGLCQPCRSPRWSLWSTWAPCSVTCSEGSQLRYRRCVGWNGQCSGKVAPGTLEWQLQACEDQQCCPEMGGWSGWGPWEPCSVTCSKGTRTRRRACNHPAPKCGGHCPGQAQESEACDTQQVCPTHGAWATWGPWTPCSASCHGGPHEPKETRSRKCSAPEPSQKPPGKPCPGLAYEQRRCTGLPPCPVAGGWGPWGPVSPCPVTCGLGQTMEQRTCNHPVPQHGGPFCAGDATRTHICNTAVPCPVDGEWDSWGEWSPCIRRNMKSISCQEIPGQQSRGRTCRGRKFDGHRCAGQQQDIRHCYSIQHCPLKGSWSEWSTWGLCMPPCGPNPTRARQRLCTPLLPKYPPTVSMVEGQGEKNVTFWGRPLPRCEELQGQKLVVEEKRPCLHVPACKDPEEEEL

Binder	binding result [1]	binding result [2]	binding result [3]
B1	binds	binds	–
B2	–	–	binds
